From PMC8660890 come the findings set out here.

This test concerns the target recombinant β subunit of human MUC4 mucin (rMUC4β) (human). In words: native gel or EMSA; Blue Native PAGE of purified rMUC4β following thermal denaturation, non-reducing conditions; western blot with anti-His tag mAb.

For “recombinant β subunit of human MUC4 mucin (rMUC4β) (domain or fragment)”, the stoichiometry N (usually a count of units in the complex or per binding partner) turned out to be 2.
